These are literature values, as cited in PMC8894612.

What is called Kd is a measure of binding affinity in units of concentration.

In this data set the target is Regnase-1 (UniProt Q5D1E7). The data set is described as follows: Biacore SPR. For orientation: In SPR one partner is held on a chip, and binding of the other changes the refractive index at the surface.
UniProt Q5D1E7, sequence (Q5D1E7 whole entry): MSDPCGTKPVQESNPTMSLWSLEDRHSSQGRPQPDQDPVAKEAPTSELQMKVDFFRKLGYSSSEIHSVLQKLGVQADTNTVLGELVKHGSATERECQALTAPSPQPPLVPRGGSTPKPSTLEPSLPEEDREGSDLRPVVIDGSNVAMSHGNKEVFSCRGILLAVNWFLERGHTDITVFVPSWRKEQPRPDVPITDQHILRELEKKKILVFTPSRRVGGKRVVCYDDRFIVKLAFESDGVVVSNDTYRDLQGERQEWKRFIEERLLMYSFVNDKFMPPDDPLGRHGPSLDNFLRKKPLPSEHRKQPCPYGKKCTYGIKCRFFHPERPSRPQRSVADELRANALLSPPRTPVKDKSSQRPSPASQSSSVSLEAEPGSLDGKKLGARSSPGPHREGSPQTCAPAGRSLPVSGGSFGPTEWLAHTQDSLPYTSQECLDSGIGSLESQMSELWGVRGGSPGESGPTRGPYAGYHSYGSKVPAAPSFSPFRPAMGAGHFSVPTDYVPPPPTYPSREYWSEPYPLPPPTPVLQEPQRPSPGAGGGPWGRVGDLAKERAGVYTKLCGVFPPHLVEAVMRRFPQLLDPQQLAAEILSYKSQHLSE

On to Roquin-1 (from UniProt Q4VGL6), for which the dissociation constant (Kd) is 417 nM.
